The results in this text go back to US20260297194 (published 2026).

The target of experiment [1] is T1, human CD3 (human, UniProt P07766).
T1 chain: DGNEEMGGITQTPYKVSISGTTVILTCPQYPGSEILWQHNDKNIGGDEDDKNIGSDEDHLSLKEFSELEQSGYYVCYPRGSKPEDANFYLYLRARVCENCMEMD
The experiment can be described thus: SPR.

Experiment [2] addresses T1, human CD3. In words: FACS, Jurkat cells.
Experiment [3] has as its target T2, cynomolgus CD3 (cynomolgus monkey, UniProt Q95LI5).
T2 chain: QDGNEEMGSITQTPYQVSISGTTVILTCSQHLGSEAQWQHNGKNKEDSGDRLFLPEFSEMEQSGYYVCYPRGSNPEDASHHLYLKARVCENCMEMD
The experiment can be described thus: SPR. Background: In SPR one partner is held on a chip, and binding of the other changes the refractive index at the surface.

In experiment [4] the target is T3, human GPRC5D (human, UniProt Q9NZD1).
T3 chain: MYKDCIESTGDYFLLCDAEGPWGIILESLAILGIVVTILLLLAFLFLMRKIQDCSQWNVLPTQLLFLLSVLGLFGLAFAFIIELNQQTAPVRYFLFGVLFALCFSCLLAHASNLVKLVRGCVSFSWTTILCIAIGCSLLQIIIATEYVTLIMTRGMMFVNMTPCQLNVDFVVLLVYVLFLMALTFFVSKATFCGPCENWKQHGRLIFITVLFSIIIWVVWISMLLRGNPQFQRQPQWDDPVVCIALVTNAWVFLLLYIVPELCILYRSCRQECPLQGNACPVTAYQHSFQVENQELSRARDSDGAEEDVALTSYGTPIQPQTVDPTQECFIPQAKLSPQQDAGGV
The experiment can be described thus: FACS, RPMI8226 cells. (In flow cytometry, cells or beads pass a laser one at a time.)

For experiment [5], the target named is T3, human GPRC5D. In words: FACS, NCI-H929 cells.
Experiment [6] addresses T3, human GPRC5D. The experiment can be described thus: FACS, NCI-H929 cells.
The target of experiment [7] is T3, human GPRC5D. In words: FACS, human GPRC5D-CHOK1 cells.
The target in experiment [8] is human GPRC5A (human, UniProt Q8NFJ5). In words: FACS, human GPRC5A-CHOK1 cells.
Sequence of human GPRC5A (Q8NFJ5 whole entry): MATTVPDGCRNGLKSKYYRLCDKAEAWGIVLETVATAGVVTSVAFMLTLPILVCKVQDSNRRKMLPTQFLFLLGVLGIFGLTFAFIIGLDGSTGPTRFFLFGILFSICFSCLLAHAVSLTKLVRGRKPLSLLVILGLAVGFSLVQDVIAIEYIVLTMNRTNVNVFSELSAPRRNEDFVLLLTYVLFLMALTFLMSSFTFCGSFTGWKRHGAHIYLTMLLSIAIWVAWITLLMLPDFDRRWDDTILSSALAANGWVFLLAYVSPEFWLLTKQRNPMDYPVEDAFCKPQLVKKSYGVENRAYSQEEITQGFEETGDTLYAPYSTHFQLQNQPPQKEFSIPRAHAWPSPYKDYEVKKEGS
The target in experiment [9] is T3, human GPRC5D. The experiment can be described thus: FACS, human GPRC5D-CHOK1 cells.

B1: Bispecific antibody 1 (CD3 arm) (antibody, V domains shown)
VH: EVKLVESGGGLVQPGGSLKLSCAASGFTFNTYAMNWVRQAPGKGLEWVARIRSKYNNYATYYADSVKDRFTISRDDAKNTLYLQMNNLRTEDTAVYYCVRHGNFGNSYVSWFAYWGQGTLVTVSS
VL: QAVVTQEPSLTVSPGGTVTLTCRSSTGAVTTSNYANWVQQKPGQAPRGLIGGTNKRAPGTPARFSGSLLGGKAALTLSGAQPEDEAEYYCALWYSNLWVFGGGTKLTVL
modifications: Acro CDD-H52W1 for SPR; native CD3 on Jurkat cells for FACS
A word on the Kd: it is the constant that tells how readily two partners part at equilibrium. As a reminder, the EC50 is the concentration that produces a half-maximal response. The molecule B1 registered a dissociation constant (Kd) in [1] of 0.02 µM. The molecule further gave a concentration giving a half-maximal response (EC50) in experiment [2] of 0.0221 µM.

B2: Bispecific antibody 1 (CD3 arm) (antibody, V domains shown)
VH: B1 VH
VL: B1 VL
modifications: Acro CDD-C52W4
Consider B2, for which the affinity in experiment [3], expressed as Kd, was 0.0168 µM.

B3: Bispecific antibody 2 (CD3 arm) (antibody, V domains shown)
VH: B1 VH
VL: B1 VL
modifications: Acro CDD-H52W1 for SPR; native CD3 on Jurkat cells for FACS
In turn, B3 gave a Kd in [1] of 0.0181 µM. Besides, a half-maximal effect in experiment [2] (EC50) was put at 0.0129 µM.

B4: Bispecific antibody 2 (CD3 arm) (antibody, V domains shown)
VH: B1 VH
VL: B1 VL
modifications: Acro CDD-C52W4
B4: in experiment [3], binding was characterised by a dissociation constant (Kd) of 0.0189 µM.

B5: Bispecific antibody 1 (GPRC5D arm) (antibody, V domains shown)
VH: QVQLVQSGAEVKKPGASVKVSCKASGYTFTSYIIHWVRQAPGQGLEWIGYINPYNDGTKYNEKFKGRVTMTSDTSTSTVYMELSSLRSEDTAVYYCARGGIRAFMNYWGQGTLVTVSS
VL: DIQMTQSPSSLSASVGDRVTITCKASQDVGTAVAWYQQKPGKAPKLLIYWASTRHTGVPSRFSGSGSGTDFTLTISSLQPEDFATYYCQHYISWTFGQGTKVEIK
Turning to B5, the EC50 in experiment [4] was 0.00748 µM; in [5], 0.00107 µM.

B6: Bispecific antibody 2 (GPRC5D arm) (antibody, V domains shown)
VH: B5 VH
VL: B5 VL
On to B6, for which the concentration giving a half-maximal response (EC50) in experiment [4] was found to be 0.0229 µM; in experiment [5], 0.00519 µM.

B7: 18CH16H2L1 (antibody, V domains shown)
VH: B5 VH
VL: B5 VL
As to B7, the half-maximal effective concentration (EC50) in [6] was 0.0003 µM; in experiment [7], 0.00051 µM.

B8: 18CH-16 chimeric (antibody, V domains shown)
VH: EVQLQQSGPELVKPGASVKMSCKASGYTFTSYIIHWVKQKPGQGLEWIGYINPYNDGTKYNEKFKGKATLTSDRSSSTAYMEVSSLTSEDSAVYYCARGGIRAFMNYWGQGTSVTVSS
VL: DIVMTQSHKFMSTSVGDRVSITCKASQDVGTAVAWYQQKPGQSPKLLIYWASTRHTGVPDRFTGSGSGTDFTLSISNVQSEDLADYFCQHYISWTFGGGTNLEIK
For the molecule B8, in experiment [8], the binding result is listed as “no binding”. In experiment [9], the EC50 came to 0.00389 µM.
